PMC8716928

B1: GvpA, entire protein, split-GFP fusion (natural protein)
chain: MAQPDSSGLAEVLDRVLDKGVVVDVWARVSLVGIEILTVEARVVAASVDTFLHYAEEIAKIEQAELTAGAEAAPEA

Biological target: Fragment F109–221 of GvpF, split-GFP fusion (Halobacterium salinarum)
Test: split reporter (BiFC, NanoBiT); split-GFP (mGFP2) in Hfx. volcanii transformants, entire Gvp proteins and fragments (Figure 7); arrangement of the GFP portions not stated; relative fluorescence (rf) of cells against untransformed WR340

Binder | relative fluorescence (rf)
B1 | < 4 rf
MAQPDSSGLAEVLDRVLDKGVV [Fragment A1–22 of GvpA, split-GFP fusion] | < 4 rf
